Patent US20170174733A1 (Genentech, published 2017)

Experiments:
LRP6 on HEK293S cells = LRP6 on HEK293S cells (human, UniProt O75581 20-1613); assay: cell-based or functional assay
[1] = target: T1, LRP6 E1E2 with a C-terminal Avi-tag and His6-tag (human, UniProt O75581 20-630, biotinylated (Avi-tag) where loaded on streptavidin tips; unlabeled where in solution); assay: BLI (OctetRED384), monomeric variant
T1 construct: domain: E1E2; also called LRP6 receptor fragment E1E2; biotinylated LRP6-E1E2; not shown: C-terminal Avi-tag and His6-tag
T1 sequence: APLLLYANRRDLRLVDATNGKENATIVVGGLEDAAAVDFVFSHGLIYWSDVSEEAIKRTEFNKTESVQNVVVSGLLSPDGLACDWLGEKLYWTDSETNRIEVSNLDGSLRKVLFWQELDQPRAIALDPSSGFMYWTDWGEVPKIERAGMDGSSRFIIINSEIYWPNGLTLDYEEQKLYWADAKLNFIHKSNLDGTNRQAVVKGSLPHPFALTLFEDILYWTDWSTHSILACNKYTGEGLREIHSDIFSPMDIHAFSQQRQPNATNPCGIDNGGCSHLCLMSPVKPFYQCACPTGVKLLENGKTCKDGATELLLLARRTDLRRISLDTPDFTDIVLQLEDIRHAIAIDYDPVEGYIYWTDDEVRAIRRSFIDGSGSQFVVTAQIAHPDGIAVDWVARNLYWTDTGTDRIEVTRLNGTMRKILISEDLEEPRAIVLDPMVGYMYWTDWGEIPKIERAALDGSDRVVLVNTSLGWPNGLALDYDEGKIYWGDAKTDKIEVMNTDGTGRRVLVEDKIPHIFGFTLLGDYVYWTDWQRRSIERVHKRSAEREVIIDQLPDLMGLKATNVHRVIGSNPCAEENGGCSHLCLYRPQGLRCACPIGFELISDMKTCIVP

VEGF109 [2] = target: T2, VEGF109 (UniProt P15692 214-315, biotinylated where loaded on streptavidin tips); assay: phage ELISA, 5 ug/ml VEGF coated on 384-well Maxisorp, OD 450 nm
T2 construct: range 8-109; also called VEGF8-109; biotinylated VEGF109
T2 sequence: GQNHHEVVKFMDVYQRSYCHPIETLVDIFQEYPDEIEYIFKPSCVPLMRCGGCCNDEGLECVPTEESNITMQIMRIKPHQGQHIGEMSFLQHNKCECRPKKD

human VEGF [3] = target: T3, human VEGF (human, UniProt P15692 27-191); assay: cell-based or functional assay
T3 sequence (P15692 other isoform, or with tags, fused parts or gaps limits assumed): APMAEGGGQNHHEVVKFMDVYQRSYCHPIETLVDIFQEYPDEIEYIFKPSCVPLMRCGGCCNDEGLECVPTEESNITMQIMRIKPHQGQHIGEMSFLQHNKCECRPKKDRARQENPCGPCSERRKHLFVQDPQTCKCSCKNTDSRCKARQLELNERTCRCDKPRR

VEGF109 [4] = target: T2, VEGF109; assay: phage spot ELISA on VEGF with the phage-displayed clone 37, as told by the legend and paragraph 367; the sheet draws sequences only, no signals
human VEGF [5] = target: T3, human VEGF; assay: cell-based or functional assay; remark: listed apart in the source
[6] = target: T1, LRP6 E1E2 with a C-terminal Avi-tag and …; assay: BLI (OctetRED384): Strep-tagged variant captured by StrepMAB-Immo on AMC tips, LRP6-E1E2 in solution
VEGF109 [7] = target: T2, VEGF109; assay: BLI (Octet) on VEGF109
Experimental: Binding affinities of chagasin variants for the targets LRP6 and VEGF109 were measured using the OctetRED384 (ForteBio). All washes, dilutions and measurements were performed in PBS-based kinetics buffer (ForteBio) with the plate shaking at 1000 rpm. Streptavidin biosensors (SA tips, ForteBio) were equilibrated in kinetics buffer for 5 min and then loaded with either biotinylated LRP6-E1E2 or biotinylated VEGF109 (20 μg/ml) to a density of 2 nm signal difference, followed by a 3 min washing step. […] Dissociation of the chagasin variant-target complex was measured in wells containing kinetics buffer alone for up to 30 min. Sensorgrams with ligand-loaded SA tips going through wells containing only buffer in both association and dissociation measurement were used as reference for background subtraction. Kd, kₐ and kd were determined using the Octet evaluation software v7.0.1.3. using a 1:1 binding model with global fitting. Alternatively, AMC-biosensors (Fortebio) were loaded with StrepMAB-Immo (IBA GmbH) to saturation and subsequently used to capture Strep-tag II containing chagasin variants to saturation. After 5 min of washing in kinetics buffer, binding kinetics to unlabeled LRP6-E1E2 fragment was determined essentially as described above.

[8] = target: anti-gD antibody (Genentech, Inc.); assay: phage ELISA on coated anti-gD antibody, 2-fold phage dilutions, anti-M13-HRP detection, OD 450 nm
BSA = BSA (UniProt P02769 25-607); assay: phage ELISA on BSA as control, 2-fold phage dilutions, anti-M13-HRP detection, OD 450 nm
Chain of BSA (P02769 25-607 limits assumed): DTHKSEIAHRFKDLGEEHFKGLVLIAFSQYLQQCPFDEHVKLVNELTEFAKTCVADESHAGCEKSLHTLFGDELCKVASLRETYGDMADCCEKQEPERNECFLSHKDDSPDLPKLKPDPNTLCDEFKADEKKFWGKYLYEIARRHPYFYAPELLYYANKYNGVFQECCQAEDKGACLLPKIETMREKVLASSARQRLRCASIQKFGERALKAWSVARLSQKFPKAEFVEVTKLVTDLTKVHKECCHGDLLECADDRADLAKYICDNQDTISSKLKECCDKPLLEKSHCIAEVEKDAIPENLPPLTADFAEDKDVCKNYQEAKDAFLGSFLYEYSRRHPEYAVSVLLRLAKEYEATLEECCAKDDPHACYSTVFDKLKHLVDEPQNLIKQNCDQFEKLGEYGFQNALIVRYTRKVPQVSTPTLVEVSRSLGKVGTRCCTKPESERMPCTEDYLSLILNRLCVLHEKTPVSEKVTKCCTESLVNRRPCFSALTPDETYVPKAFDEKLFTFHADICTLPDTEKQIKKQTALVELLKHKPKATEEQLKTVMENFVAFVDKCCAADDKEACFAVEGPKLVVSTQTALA

papain = target: T4, papain (UniProt P00784 134-345); assay: phage ELISA on coated papain, 2-fold phage dilutions, anti-M13-HRP detection, OD 450 nm
T4 construct: Coated on ELISA plates
T4 sequence: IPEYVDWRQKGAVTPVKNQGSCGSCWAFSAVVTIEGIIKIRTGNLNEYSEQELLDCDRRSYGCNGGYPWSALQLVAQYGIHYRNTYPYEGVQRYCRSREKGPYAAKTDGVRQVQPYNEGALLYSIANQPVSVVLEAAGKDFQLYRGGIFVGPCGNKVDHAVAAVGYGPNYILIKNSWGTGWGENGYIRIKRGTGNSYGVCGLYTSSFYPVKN

B1: chagasin LRP6 variant S11 (designed binder)
chain: MSHKVTKAHNGATLTVAVGELVEIQLPSNVDGFAWYFEGGTKESPNESMFTVENKYFPSNSTKRGAGGTEHFHVTVKAAGTHAVNLTYMPRVKGAYLVMERFTVYLKAN
notes: also called clone S11
LRP6 on HEK293S cells
  IC50, inhibition of Wnt1 signaling (luciferase reporter, HEK293S cells transfected by WNT1): 400 nM
[1]
  Kd: 74 nM

B2: chagasin LRP6 variant H15 (designed binder)
chain: MSHKVTKAHNGATLTVAVGELVEIQLPSNPTTGFAWYFEGGTKESPNESMFTVENKYFPSNKIKGIPGFGAGGTEHFHVTVKAAGTHAVNLTYMRPSTGPSDDSERFTVYLKAN
notes: also called clone H15
LRP6 on HEK293S cells
  IC50, inhibition of Wnt1 signaling (luciferase reporter, HEK293S cells transfected by WNT1): 26 nM
[1]
  Kd: 0.25 nM

B3: phage-displayed chagasin VEGF variant 4-66-F6 (designed binder)
chain: MADPNRFRGKDLGSLEMSHKVTKAHNGATLTVAVGELVEIQLPSNYFYDGFAWYFEGGTKESPNESMFTVENKYFPNDPGSRLSGAGGTEHFHVTVKAAGTHAVNLTYMAPWLGPSRVLERFTVYLKANGGSGGSGGS
notes: not shown: phage coat protein g3 (p3)
VEGF109 [2]
  EC50 (read off the curve): ~0.007 OD 268 nM

B4: chagasin VEGF variant E4B-5 (designed binder)
chain: MSHKVTKAHNGATLTVAVGELVEIQLPSNYFYEGFAWYFEGGTKESPNESMFTVENKYFPNGPGLGVYGAGGTEHFHVTVKAAGTHAVNLTYMAPWQGPSRELERFTVYLKAN
Human VEGF [3]
  Inhibitory Activity (IC50, nM) against hVEGF in cell-based assays: 800 nM

B5: dimeric chagasin VEGF variant 37 (designed binder)
chain: MSHKVTKAHNGATLTVAVGELVEIQLPSNYFCDGFAWYFEGGTKESPNESMFTVENKYFPNYPGSGVLGAGGTEHFHVTVKAAGTHAVNLTYMAPWFGPSRVLERFTVYLKAN
notes: also called clone 37
VEGF109 [4]
  binding result: binds

B6: chagasin VEGF variant L4X8-9 (designed binder)
chain: MSHKVTKAHNGATLTVAVGELVEIQLPSNYFYDGFAWYFEGGTKESPNESMFTVENKYFPSGSYMSYSGAGGTEHFHVTVKAAGTHAVNLTYMAPWLGPSRDLERFTVYLKAN
Human VEGF [3]
  Inhibitory Activity (IC50, nM) against hVEGF in cell-based assays: 300 nM
Human VEGF [5]
  IC50, inhibition of VEGF-dependent signaling through the KDR receptor on cells: 301 nM
  fold improvement of IC50 over the parental chagasin variant 4: 2 fold

B7: chagasin VEGF variant E4B-10 (designed binder)
chain: MSHKVTKAHNGATLTVAVGELVEIQLPSNYFYDGFAWYFEGGTKESPNESMFTVENKYFPDDPGSGLWGAGGTEHFHVTVKAAGTHAVNLTYMAPWSGPSRYLERFTVYLKAN
Human VEGF [3]
  Inhibitory Activity (IC50, nM) against hVEGF in cell-based assays: 610 nM

B8: chagasin VEGF variant E4B-7 (designed binder)
chain: MSHKVTKAHNGATLTVAVGELVEIQLPSNYYYDGFAWYFEGGTKESPNESMFTVENKYFPNVNGSHAWGAGGTEHFHVTVKAAGTHAVNLTYMAPWSGPSRFLERFTVYLKAN
Human VEGF [3]
  Inhibitory Activity (IC50, nM) against hVEGF in cell-based assays: 550 nM

B9: chagasin LRP6 variant S (designed binder)
chain: MSHKVTKAHNGATLTVAVGELVEIQLPSNPADGFAWYFEGGTKESPNESMFTVENKYFPSNYTKHGAGGTEHFHVTVKAAGTHAVNLTYMPREKGSSLVMERFTVYLKANSAWSHPQFEK
[6]
  Kd: 70 nM

B10: phage-displayed chagasin VEGF variant 5-44-D8 (designed binder)
chain: MADPNRFRGKDLGSLEMSHKVTKAHNGATLTVAVGELVEIQLPSNLRSMGFAWYFEGGTKESPNESMFTVENKYFPAGPSAVPLGAGGTEHFHVTVKAAGTHAVNLTYMAPWRGPANVIERFTVYLKANGGSGGSGGS
notes: as for B3
VEGF109 [2]
  EC50 (read off the curve): ~0.003 OD 268 nM

B11: phage-displayed chagasin VEGF variant 1-90-H6 (designed binder)
chain: MADPNRFRGKDLGSLEMSHKVTKAHNGATLTVAVGELVEIQLPSNLQDSGFAWYFEGGTKESPNESMFTVENKYFPSGTTGKSNGAGGTEHFHVTVKAAGTHAVNLTYMFKSRGLMVPLERFTVYLKANGGSGGSGGS
notes: as for B3
VEGF109 [2]
  EC50 (read off the curve): ~0.006 OD 268 nM

B12: phage-displayed chagasin VEGF variant 3-65-F5 (designed binder)
chain: MADPNRFRGKDLGSLEMSHKVTKAHNGATLTVAVGELVEIQLPSNYRDSGFAWYFEGGTKESPNESMFTVENKYFPVRAGQANEGAGGTEHFHVTVKAAGTHAVNLTYMSPVLGPRFWLERFTVYLKANGGSGGSGGS
notes: as for B3
VEGF109 [2]
  EC50 (read off the curve): ~0.004 OD 268 nM

B13: chagasin LRP6 variant P (designed binder)
chain: MSHKVTKAHNGATLTVAVGELVEIQLPSNPSCGFAWYFEGGTKESPNESMFTVENKYFPDSNEIWYCGAGGTEHFHVTVKAAGTHAVNLTYMSPYYGPTKVEERFTVYLKANSAWSHPQFEK
[6]
  Kd: 150 nM

B14: chagasin VEGF binder Variant 66-L2-K (designed binder)
chain: MSHKVTKAHNGATLTVAVGELVEIQLPSNYYKDGFAWYFEGGTKESPNESMFTVENKYFPHYYNLGGRYTGAGGTEHFHVTVKAAGTHAVNLTYMGPWLGPSRVLERFTVYLKAN
VEGF109 [7]
  Kd: 61 nM

B15: chagasin VEGF binder Variant 66-L4-S (designed binder)
chain: MSHKVTKAHNGATLTVAVGELVEIQLPSNYYYDGFAWYFEGGTKESPNESMFTVENKYFPHYSNLGGRYTGGAGTEHFHVTVKAAGTHAVNLTYMGPWLGPSRVLERFTVYLKAN
VEGF109 [7]
  Kd: 50 nM

B16: chagasin VEGF binder Variant 66-L4-T (designed binder)
chain: MSHKVTKAHNGATLTVAVGELVEIQLPSNYYYDGFAWYFEGGTKESPNESMFTVENKYFPHYTNLGGRYTGGAGTEHFHVTVKAAGTHAVNLTYMGPWLGPSRVLERFTVYLKAN
VEGF109 [7]
  Kd: 51 nM

B17: chagasin VEGF binder Variant 66-L4-Q (designed binder)
chain: MSHKVTKAHNGATLTVAVGELVEIQLPSNYYYDGFAWYFEGGTKESPNESMFTVENKYFPHYQNLGGRYTGAGGTEHFHVTVKAAGTHAVNLTYMGPWLGPSRVLERFTVYLKAN
VEGF109 [7]
  Kd: 80 nM

B18: phage-displayed gD-tagged wild-type chagasin fused to phage coat protein p3 (other)
chain: MADPNRFRGKDLGSLEMSHKVTKAHNGATLTVAVGELVEIQLPSNPTTGFAWYFEGGTKESPNESMFTVENKYFPPDSKLLGAGGTEHFHVTVKAAGTHAVNLTYMRPWTGPSHDSERFTVYLKANGGSGGSGGS
notes: also called chagasin wild-type (wt); p3-fusion display; not shown: phage coat protein g3 (p3)
[8]
  EC50 (read off the curve): ~0.01 OD 268 nM
BSA
  binding result: no binding (tested: 0.5 OD 268 nm)
papain
  EC50 (read off the curve): ~0.04 OD 268 nM

B19: phage-displayed gD-tagged wild-type chagasin fused to phage coat protein p8 (other)
chain: MADPNRFRGKDLGSLEMSHKVTKAHNGATLTVAVGELVEIQLPSNPTTGFAWYFEGGTKESPNESMFTVENKYFPPDSKLLGAGGTEHFHVTVKAAGTHAVNLTYMRPWTGPSHDSERFTVYLKANGGSGGSGGS
notes: also called chagasin wild-type (wt); p8-fusion display; not shown: phage coat protein g8 (p8)
[8]
  EC50 (read off the curve): ~0.02 OD 268 nM
BSA
  binding result: no binding (tested: 0.5 OD 268 nm)
papain
  EC50 (read off the curve): ~0.04 OD 268 nM

B20: chagasin VEGF variant L4X6-3 (designed binder)
chain: MSHKVTKAHNGATLTVAVGELVEIQLPSNYFNDGFAWYFEGGTKESPNESMFTVENKYFPGSSYWGGAGGTEHFHVTVKAAGTHAVNLTYMAPWAGPSRVLERFTVYLKAN
Human VEGF [3]
  Inhibitory Activity (IC50, nM) against hVEGF in cell-based assays: 710 nM

B21: chagasin LRP6 variant H (designed binder)
chain: MSHKVTKAHNGATLTVAVGELVEIQLPSNPTTGFAWYFEGGTKESPNESMFTVENKYFPYNNIRGLPGFGAGGTEHFHVTVKAAGTHAVNLTYMRPWTGPSHDSERFTVYLKANSAWSHPQFEK
[6]
  Kd: 6 nM

B22: phage-displayed chagasin VEGF variant 2-40-D4 (designed binder)
chain: MADPNRFRGKDLGSLEMSHKVTKAHNGATLTVAVGELVEIQLPSNLQNAGFAWYFEGGTKESPNESMFTVENKYFPLSLYASETGAGGTEHFHVTVKAAGTHAVNLTYMNPNWGPDYWIERFTVYLKANGGSGGSGGS
notes: as for B3
VEGF109 [2]
  EC50 (read off the curve): ~0.003 OD 268 nM
